These results are taken from publication PMC8390535.

One may read the Kd as a measure of binding affinity in units of concentration. Lower therefore signals tighter binding.

This experiment deals with sfGFP-POX10 (superfolder green fluorescent protein POX10 fusion protein). Description: SPR. Background: Surface plasmon resonance follows binding to a sensor surface in real time, without labels.

“PXDN-con4 (human recombinant peroxidasin consisting of the four immunoglobulin domains and the peroxidase domain) (domain or fragment)”: the Kd was 74 nM.
